# Assay results: US20240189424A1 (published 2024)
# Changes are numbered by the printed parent chain.
# T1: Soluble monomeric B7H6-His (UniProt Q68D85 25-262, limits assumed)
# T1 construct: extracellular domain; also called monovalent B7H6; soluble B7H6; not shown: C-terminal Avi-tag and 6xHis-tag
# T1 sequence (looked up): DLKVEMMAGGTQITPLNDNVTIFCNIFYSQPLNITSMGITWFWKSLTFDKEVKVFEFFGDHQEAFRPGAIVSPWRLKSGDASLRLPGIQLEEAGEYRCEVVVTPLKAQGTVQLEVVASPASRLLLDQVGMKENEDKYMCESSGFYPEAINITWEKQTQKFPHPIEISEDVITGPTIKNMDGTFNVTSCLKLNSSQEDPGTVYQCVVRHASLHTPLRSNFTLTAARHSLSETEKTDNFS
# B1: CC5-Fc (Fc fusion)
# chain: LWVSQPPEIRTLEGSSAFLPCSFNASQGRLAIGSVTWFRDEVVPGKEVRNGTPEFRGRLAPLAPSRFLHDHQAELHIRDVRGHDASIYVCRVEVLGLGVGTGNGTRLVVEKEHPQLG
# notes: also called clone CC5; not shown: mouse IgG2a Fc domain
# B2: NKp30-Fc (Fc fusion)
# chain: B1 chain with P64S
# notes: Extracellular domain of NKp30 fused to a mouse IgG2a Fc domain, expressed in expi293 HEK cells, bivalent; also called native NKp30; wildtype NKp30; not shown: mouse IgG2a Fc domain
# Experiments:
# [1] = biological target: T1, Soluble monomeric B7H6-His; assay: BLI (Octet RED96), Fc fusion on Protein A tips, monovalent B7H6-His in solution, steady state affinity
# Procedure: (§1) BioLayer Interferometry (BLI) measurements of affinity KD were obtained using the ForteBio Octet RED96 system as previously described. Briefly, Protein A-coated biosensor tips were “activated” by incubation with 41 nM TZ47-Fc, NKp30-Fc, or CC3-Fc for 10 min to load tips. Binding to soluble B7H6-His were assessed by allowing TZ47-Fc, NKp30-Fc, or CC3-Fc coated tips to equilibrate in PBS+0.1% Tween-20 (PBST) for 5 min, followed by association steps in 200 μL of each antigen at concentrations ranging from 0 to 3000 nM for 10 min, and dissociation steps in 200 µL of PBST for 5 min. Data was analyzed using Octet® System Data Analysis software.
# (§2) Clone CC5, which contains only the consensus S82P mutation, along with CC3, which had two additional amino acid substitutions, were chosen for further characterization. To define binding affinities and kinetics with improved resolution, CC3, CC5, NKp30, and TZ47 sequences were expressed recombinantly as Fc fusion proteins. Affinity to monovalent B7H6 was determined by Biolayer Interferometry (BLI). […] The fast on and off rate profile of NKp30 was maintained in the variants despite the increase in overall affinity.
# [2] = biological target: T1, Soluble monomeric B7H6-His; assay: BLI, Fc fusion on Protein A tips, monovalent B7H6-His
# Procedure: as §1, §2
Molecule,Kd [1] [nM],fold improvement of KD compared to NKp30 [2] [fold]
CC3-Fc (from UniProt O14931 19-135) (Fc fusion),680,2
B1,580,2
B2,1300,
